Data as given in patent US20130190477A1 (REGENTS OF THE UNIVERSITY OF COLORADO, published 2013).

Columns and labels:
[1] = molecular target: T1, EBV gp350, truncated construct comprising residues 1-470 of the wild-type protein, C-terminal polyhistidine … (Epstein-Barr virus, UniProt P03200 1-470); assay: ITC, 20 °C, 1/3x PBS, single site binding model
T1 construct: range 1-470; Produced in Sf9 insect cells by baculovirus; The methods say truncated 1-470, yet the results and discussion call the titrated ligand 'full-length'; also called Epstein-Barr virus glycoprotein gp350/220; not shown: C-terminal polyhistidine tag
T1 sequence: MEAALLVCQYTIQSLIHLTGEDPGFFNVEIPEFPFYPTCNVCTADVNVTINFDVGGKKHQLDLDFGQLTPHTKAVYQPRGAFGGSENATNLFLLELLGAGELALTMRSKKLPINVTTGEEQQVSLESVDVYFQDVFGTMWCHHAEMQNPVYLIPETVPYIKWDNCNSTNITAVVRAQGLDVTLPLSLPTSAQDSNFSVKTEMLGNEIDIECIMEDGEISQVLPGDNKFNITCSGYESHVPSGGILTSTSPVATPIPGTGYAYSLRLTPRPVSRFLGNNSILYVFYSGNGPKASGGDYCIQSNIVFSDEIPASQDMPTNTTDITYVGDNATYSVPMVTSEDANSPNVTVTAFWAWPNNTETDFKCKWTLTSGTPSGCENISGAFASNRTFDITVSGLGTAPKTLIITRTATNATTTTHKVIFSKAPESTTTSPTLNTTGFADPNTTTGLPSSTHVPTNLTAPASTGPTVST

Human C3d [2] = molecular target: T2, Human C3d (human, UniProt P01024 996-1303, limits assumed); assay: ITC, 20 °C, 1/3x PBS, two site binding model (weak site)
T2 construct: domain: C3d; also called complement component 3 proteolytic fragment C3d
T2 sequence (P01024 996-1303 limits assumed): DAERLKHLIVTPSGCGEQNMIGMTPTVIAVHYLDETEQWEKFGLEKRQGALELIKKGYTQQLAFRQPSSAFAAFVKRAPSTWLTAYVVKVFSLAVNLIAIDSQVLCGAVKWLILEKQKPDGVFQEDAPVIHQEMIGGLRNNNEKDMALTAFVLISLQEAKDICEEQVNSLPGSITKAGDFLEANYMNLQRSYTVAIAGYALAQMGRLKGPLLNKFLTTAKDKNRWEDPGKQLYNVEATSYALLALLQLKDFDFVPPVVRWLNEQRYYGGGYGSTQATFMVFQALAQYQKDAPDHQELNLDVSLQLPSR
Procedure: (§1) ITC experiments were carried out on a Microcal VP-ITC (GE Healthcare, Piscataway, N.J.) housed in the Biophysics Core facility on the UCDSOM campus. […] Data was analyzed using the software provided by the manufacturer (Origin, version 7.0 MicroCal) using either single site or two site binding models (55).

Human C3d [3] = molecular target: T2, Human C3d; assay: ITC, 20 °C, 1/3x PBS, two site binding model (tight site)
Procedure: as §1

[4] = molecular target: T1, EBV gp350, truncated construct …; assay: NMR titration, upper limit from slow exchange (min. shift difference about 60 Hz, diffusion-limited on rate assumed)

B1: Human CR2 SCR1-2 (short consensus repeat domains 1 and 2 of human complement receptor 2) (receptor)
chain: ISCGSPPPILNGRISYYSTPIAVGTVIRYSCSGTFRLIGEKSLLCITKDKVDGTWDKPAPKCEYFNKYSSCPEPIVPGGYKIRGSTPYRHGDSVTFACKTNFSMNGNKSVWCQANNMWGPTRLPTCVS
notes: The ITC paragraph says only 'CR2 SCR1-2', so it is not clear which preparation gave the ITC values; also called CR2/CD21 SCR1-2; SCR1-2 domains of CR2
B1 showed a Kd [1] of 14 nM, a Kd (Human C3d [2]) of 160000 nM and a Kd (Human C3d [3]) of 130 nM. For the same binder, the Kd [4] was no more than 60000 nM.
